# According to patent publication US20170095512A1, “METHODS OF INDUCING MYELINATION AND MATURATION OF OLIGODENDROCYTES” (KADIMASTEM LTD., priority 2014, published 2017):
# B1: Noggin: the inhibitor of BMP signaling noggin (R&D) (protein, UniProt Q13253 28-232, looked up)
# Noggin: QHYLHIRPAPSDNLPLVDLIEHPDPIFDPKEKDLNETLLRSLLGGHYDPGFMATSPPEDRPGGGGGAAGGAEDLAELDQLLRQRPSGAMPSEIKGLEFSEGLAQGKKQRLSKKLRRKLQMWLWSQTFCPVLYAWNDLGSRFWPRYVKVGSCFSKRSCSVPEGMVCKPSKSVHLTVLRWRCQRRGGQRCGWIPIQYPIISECKCSC
# Key:
# [1] = test system: glial progenitor cells derived from human ES cells (Olig2 positive cells); experiment: hOPC differentiation assay, Olig2 positive cells (immunostaining, high content screening); type: cell-based; settings: days 21, 28, 35, 42; noggin 100 ng/ml; LDN-193189 62.5 nM and 125 nM
# Procedure: In order to initiate differentiation 20,000 GPCs were seeded in each well of Matrigel coated plates of 96 wells, or on PolyD-Lysine/laminin (PDL/lam)-coated 96 well plates. Cells were grown in GM media for two to three days. Then GM was replaced by differentiation medium without growth factors, (DMEM/F12, 1% B27, 0.5% N2, Vitamin C (Sigma, 50 ug/ml). Differentiation medium was supplemented with the following tested compounds: […] All media were replaced every other day. The oligodendrocyte lineage cells were characterized by the expression of a transcription factor olig2. The rabbit polyclonal AB anti olig2 (Millipore cat AB9610) was added to PFA fixed cells. […] ArrayScan VTI HCS reader system (Cellomis, Thermo-scientific) was used for scanning at least 20 fields for each tested well under 10× objective in both assays (differentiation and myelination). […] For myelination assay, the same morphological parameters were tested and in addition: areas of myelinated axons in pixels (MBP&NF overlap area) and Number of myelinated regions (MBP&NF overlap count) were also analyzed. […] The 4-parameter Hill-Slope curve fittings were generated by GraphPad Prism software using least squares fitting method and EC50 values were calculated. […] Time points used for analysis are 21, 28, 35 and 42 days of differentiation, for each time point 20 fields were analyzed. […]
# [2] = test system: hPSC derived oligodendrocytes co-cultured with rodent dorsal root ganglia neurons (MBP+ cells); experiment: Co-culture myelination assay (human oligodendrocytes with DRG neurons), MBP staining; type: cell-based; settings: 14 days co-culture; Noggin 50 ng/ml; LDN-193189 125 nM
# Procedure: ArrayScan VTI HCS reader system (Cellomis, Thermo-scientific) was used for scanning at least 20 fields for each tested well under 10× objective in both assays (differentiation and myelination). Cellomics Neural profiling bio-application was used for processing and analyzing the images. For differentiation assay, the following parameters were tested: number and percentage of O4+ cells, number of processes, processes length and number of branching points. For myelination assay, the same morphological parameters were tested and in addition: areas of myelinated axons in pixels (MBP&NF overlap area) and Number of myelinated regions (MBP&NF overlap count) were also analyzed. Modifications in the Neuro-profiling bio-application were conducted for this specific purpose. T-test analysis was used to compare between treatments. The 4-parameter Hill-Slope curve fittings were generated by GraphPad Prism software using least squares fitting method and EC50 values were calculated. […]
# For testing maturation and myelination capacity of the hPSC derived oligodendrocytes, a co-culture system between rodent dorsal root ganglia (DRGs) and hPSCs derived oligodendrocytes was used. The number of MBP+ cells (MBP, a marker of oligodendrocytes' myelin) and Myelin formation (measured by co-localization area between MBP and neurofilament positive neuronal axons) was quantified.
molecule,measurement,setting,value
B1,conversion of neural stem cells to Olig2 positive cells,[1],stimulate the conversion of neural stem cells to Olig2 positive cells
same,Myelin fibers,[2],Myelin fibers are observed
